Assay in all cases: purified protein
The subject of data set [1] is CC(=O)OCC(COP(=O)(O)O)OC(C)=O. The note with it: pH 8.0; 30.0 °C.
In the next data set the test system is CC(=O)Oc1c[nH]c2ccccc12. The note with it: pH 8.3; 30.0 °C.
The next data set has as its system CC(=O)Oc1ccc2ccccc2c1. The following applies: pH 8.0; 30.0 °C.

Take “phosphotriesterase homology protein (PHP) (Escherichia coli K-12)”: the values for the Km (in data set [1]; in the data set with CC(=O)Oc1c[nH]c2ccccc12; in the data set on CC(=O)Oc1ccc2ccccc2c1) were 6000 ± 500 µM, 1800 ± 200 µM and 1800 ± 200 µM, respectively. Further, the kcat/Km in data set [1] was 4600 ± 650 M⁻¹ s⁻¹; in the data set with CC(=O)Oc1c[nH]c2ccccc12 it was 180 ± 20 M⁻¹ s⁻¹; in the data set with CC(=O)Oc1ccc2ccccc2c1, 1400 ± 200 M⁻¹ s⁻¹.

The values are drawn from publication PMC6643279 (Biochemistry, 2018).
